Laboratory results from the supplement of paper PMC9732359.
± gives the uncertainty stated by the source.

Experiment: protein stability index of a GFP-peptide fusion (yeast GPS) (PSI 1-4); higher = more stable; sorted into four equal gates, so the index is relative within each strain
In short: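 Tiled 17-residue peptides from yeast proteins were fused downstream of GFP on a plasmid that also expresses Cherry, and the pooled library was carried in yeast. Mid-log cultures grown in leucine-free medium were sorted into four equal gates by GFP/Cherry fluorescence ratio. Plasmids from each gate were PCR-amplified and Illumina-sequenced, and reads were assigned to strains by barcodes. Each peptide's protein stability index is the sum, over gates, of the gate's read frequency multiplied by its gate number.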

HYNDSQQLRTWKRQISY [SRB8]
protein stability index (doa10∆): 3.25 ± 0.085
protein stability index (pdr5∆): 3.39 ± 0.14
protein stability index (san1∆): 3.21 ± 0.09
protein stability index (ubr1∆): 3.32 ± 0.19

KPSRTSRQVQKRPRSRT [RPS7A]
protein stability index (doa10∆): 3.08 ± 0.092
protein stability index (pdr5∆): 2.44 ± 0.085
protein stability index (san1∆): 2.68 ± 0.061
protein stability index (ubr1∆): 1.95 ± 0.14

EKITQISLLCKNFKGIE [PCI8]
protein stability index (doa10∆): 2.41 ± 0.049
protein stability index (pdr5∆): 2.55 ± 0.039
protein stability index (san1∆): 2.7 ± 0.037
protein stability index (ubr1∆): 2.5 ± 0.035

NRTVLLKIFKIFCIDLE [SRB8]
protein stability index (doa10∆): 1.94 ± 0.094
protein stability index (pdr5∆): 2.15 ± 0.089
protein stability index (san1∆): 1.89 ± 0.13
protein stability index (ubr1∆): 2.3 ± 0.071

SVVRGNTFKVLSKFFFF [COB]
protein stability index (doa10∆): 2.11 ± 0.065
protein stability index (pdr5∆): 2.2 ± 0.13
protein stability index (san1∆): 2.44 ± 0.093
protein stability index (ubr1∆): 1.83 ± 0.069

QQQSSQNTVPNVLNQIN [GAL11]
protein stability index (doa10∆): 1.66 ± 0.063
protein stability index (pdr5∆): 1.82 ± 0.053
protein stability index (san1∆): 1.71 ± 0.078
protein stability index (ubr1∆): 2.01 ± 0.042

LEQEYRLILLLNHRNKN [RMP1]
protein stability index (doa10∆): 1.28 ± 0.045
protein stability index (pdr5∆): 1.18 ± 0.05
protein stability index (san1∆): 1.19 ± 0.084
protein stability index (ubr1∆): 1.13 ± 0.046

TEKLSPLASEESLTNSN [YGL100W/SEH1]
protein stability index (doa10∆): 3.36 ± 0.13
protein stability index (pdr5∆): 3.25 ± 0.14
protein stability index (san1∆): 3.12 ± 0.099
protein stability index (ubr1∆): 3.32 ± 0.075

ILSNVDLAMANSLRRVM [RPB3]
protein stability index (doa10∆): 2.75 ± 0.055
protein stability index (pdr5∆): 2.54 ± 0.047
protein stability index (san1∆): 2.66 ± 0.071
protein stability index (ubr1∆): 2.46 ± 0.037

HCDKCSVVLTLQAFGES [RPB3]
protein stability index (doa10∆): 3.1 ± 0.15
protein stability index (pdr5∆): 3.19 ± 0.14
protein stability index (san1∆): 2.47 ± 0.19
protein stability index (ubr1∆): 2.6 ± 0.17

NKVGSTGSLMGGNSTQN [YGR119C/NUP57]
protein stability index (doa10∆): 3.02 ± 0.076
protein stability index (pdr5∆): 3.38 ± 0.098
protein stability index (san1∆): 3.19 ± 0.059
protein stability index (ubr1∆): 3.17 ± 0.053

VIFDASIKDTQNVGQGK [BRN1]
protein stability index (doa10∆): 2.15 ± 0.14
protein stability index (pdr5∆): 2.45 ± 0.12
protein stability index (san1∆): 2.61 ± 0.13
protein stability index (ubr1∆): 3.01 ± 0.096

TLSPNVTDSSLLKLLTR [GRR1]
protein stability index (doa10∆): 2.89 ± 0.062
protein stability index (pdr5∆): 2.99 ± 0.07
protein stability index (san1∆): 2.83 ± 0.043
protein stability index (ubr1∆): 2.82 ± 0.042

NPVTLNEDSKAFHTAVL [NUT1]
protein stability index (doa10∆): 2.81 ± 0.057
protein stability index (pdr5∆): 2.96 ± 0.076
protein stability index (san1∆): 2.82 ± 0.075
protein stability index (ubr1∆): 2.41 ± 0.059

QQQQQHQQQQQQQQQQQ [SNF5]
protein stability index (doa10∆): 2.73 ± 0.04
protein stability index (pdr5∆): 2.89 ± 0.05
protein stability index (san1∆): 2.94 ± 0.043
protein stability index (ubr1∆): 2.97 ± 0.044

KKGVRVTLDITTLTIMR [RPT4]
protein stability index (doa10∆): 2.48 ± 0.093
protein stability index (pdr5∆): 2.08 ± 0.11
protein stability index (san1∆): 2.23 ± 0.079
protein stability index (ubr1∆): 2.56 ± 0.082

RAGVCEYNEDSRLCTPI [RPN13]
protein stability index (doa10∆): 2.29 ± 0.12
protein stability index (pdr5∆): 1.86 ± 0.078
protein stability index (san1∆): 1.41 ± 0.2
protein stability index (ubr1∆): 2.84 ± 0.072

LKIYYKEEFSSDESIER [RRI2]
protein stability index (pdr5∆): 2.43 ± 0.15
protein stability index (san1∆): 2 ± 0.23
protein stability index (ubr1∆): 2.9 ± 0.11

GTNAMLPSPESLKTKLN [SNF5]
protein stability index (doa10∆): 1.88 ± 0.037
protein stability index (pdr5∆): 1.97 ± 0.035
protein stability index (san1∆): 2.19 ± 0.046
protein stability index (ubr1∆): 2.12 ± 0.034

GLFGANSNSNSGSLFGS [YGL172W/NUP49]
protein stability index (doa10∆): 1.31 ± 0.13
protein stability index (pdr5∆): 1.7 ± 0.14
protein stability index (san1∆): 1.05 ± 0.25
protein stability index (ubr1∆): 1.41 ± 0.21

RKCCNHPYLFEGAEPGP [ISW2]
protein stability index (doa10∆): 3.06 ± 0.064
protein stability index (pdr5∆): 3.11 ± 0.067
protein stability index (san1∆): 3.11 ± 0.05
protein stability index (ubr1∆): 3.2 ± 0.052

PTRYVLIRNVGTNTYRL [POP1]
protein stability index (doa10∆): 1.97 ± 0.29
protein stability index (pdr5∆): 1.32 ± 0.23
protein stability index (san1∆): 1.12 ± 0.28

NVTMIDDLIHFTLKQWN [COR1]
protein stability index (doa10∆): 2.49 ± 0.14
protein stability index (pdr5∆): 2.89 ± 0.16
protein stability index (san1∆): 2.79 ± 0.081
protein stability index (ubr1∆): 2.74 ± 0.099

QHYKNNSISSQPASYHS [SSN2]
protein stability index (doa10∆): 2.56 ± 0.058
protein stability index (pdr5∆): 3.03 ± 0.067
protein stability index (san1∆): 3.05 ± 0.065
protein stability index (ubr1∆): 2.78 ± 0.057

LLVKLSKRLPLRFPEHT [BRR2]
protein stability index (doa10∆): 2.3 ± 0.063
protein stability index (pdr5∆): 2.75 ± 0.07
protein stability index (san1∆): 2.25 ± 0.17
protein stability index (ubr1∆): 2.42 ± 0.062

RNVLSASLDGTIRLWEC [RPN14]
protein stability index (doa10∆): 2.95 ± 0.068
protein stability index (pdr5∆): 3.09 ± 0.073
protein stability index (san1∆): 3.14 ± 0.042
protein stability index (ubr1∆): 2.82 ± 0.043

SLLAMHKHNIMKNENAN [CDC53]
protein stability index (doa10∆): 2.2 ± 0.064
protein stability index (pdr5∆): 2.58 ± 0.066
protein stability index (san1∆): 2.82 ± 0.072
protein stability index (ubr1∆): 3.05 ± 0.046

SMTAVPKPLKFLRPTYP [RPN1]
protein stability index (doa10∆): 2.33 ± 0.058
protein stability index (pdr5∆): 2.21 ± 0.064
protein stability index (san1∆): 1.85 ± 0.069
protein stability index (ubr1∆): 2.47 ± 0.064

GSMTKTWYVGNSRGKFD [SSN2]
protein stability index (doa10∆): 3.74 ± 0.26
protein stability index (san1∆): 3.08 ± 0.24

LISSSLSNLSKDIKANL [YCS4]
protein stability index (doa10∆): 2.26 ± 0.057
protein stability index (pdr5∆): 1.72 ± 0.061
protein stability index (san1∆): 1.87 ± 0.1
protein stability index (ubr1∆): 2.35 ± 0.067

IPYAAKLLFQELMAMNI [RPB2]
protein stability index (doa10∆): 1.64 ± 0.13
protein stability index (pdr5∆): 1.66 ± 0.098
protein stability index (san1∆): 1.64 ± 0.29
protein stability index (ubr1∆): 1.55 ± 0.055

LTFMTCNSLHIPQDFEN [ESC2]
protein stability index (doa10∆): 2.17 ± 0.045
protein stability index (pdr5∆): 2.46 ± 0.047
protein stability index (san1∆): 2.19 ± 0.089
protein stability index (ubr1∆): 2.66 ± 0.04

IVRPAKGVATTREKVLE [RRP46]
protein stability index (doa10∆): 3.43 ± 0.16
protein stability index (pdr5∆): 2.83 ± 0.1
protein stability index (san1∆): 2.21 ± 0.12
protein stability index (ubr1∆): 3.09 ± 0.082

EETDEVSSESSDEAIIP [SIR3]
protein stability index (doa10∆): 2.93 ± 0.068
protein stability index (pdr5∆): 2.52 ± 0.056
protein stability index (san1∆): 2.73 ± 0.065
protein stability index (ubr1∆): 2.82 ± 0.043

GKLFSDIKVLKRQLIKE [YIL149C/MLP2]
protein stability index (doa10∆): 3.01 ± 0.12
protein stability index (pdr5∆): 2.56 ± 0.08
protein stability index (san1∆): 2.59 ± 0.078
protein stability index (ubr1∆): 2.42 ± 0.04

IPVEILVRRLSDIKQGY [PRE9]
protein stability index (doa10∆): 2.95 ± 0.08
protein stability index (pdr5∆): 2.72 ± 0.095
protein stability index (san1∆): 2.79 ± 0.061
protein stability index (ubr1∆): 2.87 ± 0.06

EYYRIQKQLPQKTRVKL [ESC2]
protein stability index (doa10∆): 2.79 ± 0.055
protein stability index (pdr5∆): 2.77 ± 0.05
protein stability index (san1∆): 2.86 ± 0.05
protein stability index (ubr1∆): 2.82 ± 0.039

IADQDMEDEDMVDVIID [ESC2]
protein stability index (doa10∆): 3.41 ± 0.16
protein stability index (pdr5∆): 3.3 ± 0.079
protein stability index (san1∆): 3.15 ± 0.088
protein stability index (ubr1∆): 3.15 ± 0.11

ESLKNLNESRSQHKKIL [SMC3]
protein stability index (doa10∆): 2.78 ± 0.13
protein stability index (pdr5∆): 3.05 ± 0.098
protein stability index (san1∆): 2.85 ± 0.1
protein stability index (ubr1∆): 3.04 ± 0.096

INESAENFSNGISLVME [MED1]
protein stability index (doa10∆): 3.35 ± 0.11
protein stability index (pdr5∆): 3.16 ± 0.07
protein stability index (san1∆): 3.07 ± 0.055
protein stability index (ubr1∆): 3.1 ± 0.045

QMQQQQQAQAQAQAQAQ [GAL11]
protein stability index (doa10∆): 2.1 ± 0.074
protein stability index (pdr5∆): 2.08 ± 0.053
protein stability index (san1∆): 2.19 ± 0.059
protein stability index (ubr1∆): 1.97 ± 0.057

SAASKKKKNKNKGKKKR [SRP21]
protein stability index (doa10∆): 3.22 ± 0.081
protein stability index (pdr5∆): 3.04 ± 0.1
protein stability index (san1∆): 3.11 ± 0.056
protein stability index (ubr1∆): 3.22 ± 0.056

QIAKFVVGLGERVSPTD [RPT1]
protein stability index (doa10∆): 2.62 ± 0.099
protein stability index (pdr5∆): 1.33 ± 0.04
protein stability index (san1∆): 2.05 ± 0.13
protein stability index (ubr1∆): 1.38 ± 0.051

ENIENEEYVINLLKVSV [ECM29]
protein stability index (doa10∆): 1.96 ± 0.12
protein stability index (pdr5∆): 3.23 ± 0.19
protein stability index (ubr1∆): 3.1 ± 0.11

EKASGFEDSMQFKKLTH [PRP8]
protein stability index (doa10∆): 2.81 ± 0.085
protein stability index (pdr5∆): 3.12 ± 0.083
protein stability index (san1∆): 2.99 ± 0.087
protein stability index (ubr1∆): 3.01 ± 0.084

QYTKDEQFYTKDIIDPK [RPN2]
protein stability index (doa10∆): 3.53 ± 0.13
protein stability index (pdr5∆): 3.24 ± 0.094
protein stability index (san1∆): 2.78 ± 0.15
protein stability index (ubr1∆): 3.29 ± 0.065

SSISWKNIAQCLSDYTK [YJL039C/NUP192]
protein stability index (doa10∆): 2.05 ± 0.08
protein stability index (pdr5∆): 2.11 ± 0.076
protein stability index (san1∆): 1.87 ± 0.076
protein stability index (ubr1∆): 2.11 ± 0.058

IFLQQFLQELLKKVQQQ [SWI1]
protein stability index (doa10∆): 2.94 ± 0.098
protein stability index (pdr5∆): 2.37 ± 0.12
protein stability index (san1∆): 2.56 ± 0.11
protein stability index (ubr1∆): 2.5 ± 0.13

DEKLKTEKLKNDKSEVL [SRB8]
protein stability index (doa10∆): 3.09 ± 0.3
protein stability index (pdr5∆): 3.74 ± 0.21
protein stability index (san1∆): 3.24 ± 0.18
protein stability index (ubr1∆): 3.33 ± 0.22

NRKVLQALEKIGIVEIS [RPS19A]
protein stability index (doa10∆): 2.34 ± 0.1
protein stability index (pdr5∆): 2.27 ± 0.1
protein stability index (san1∆): 2.24 ± 0.074
protein stability index (ubr1∆): 2.31 ± 0.07

VKVVDAGNKVGQSEASL [RPP0]
protein stability index (pdr5∆): 3.58 ± 0.22
